For one substance, stoichiometry N results are on record in PMC7573975.

The term stoichiometry N denotes a count of units in the complex or per binding partner.

For the assay, the target named is Red_a PSI complex (one PSI monomer of the trimer; chimeric Photosystem I of Synechocystis PCC 6803) (Synechocystis sp. PCC6803 | Synechocystis sp. PCC6803 (endogenous)) (UniProt P29254). The assay is described as follows: cryo-EM structure; single particle Cryo-EM of the purified Red_a PSI trimer; 30 mM Tricine-NaOH pH 8, 150 mM NaCl, 0.02% DDM; 1 mg/ml chlorophyll; C1, symmetry expansion and multibody refinement with each monomer as a body.

“Red_a PSI complex (one PSI monomer of the trimer; chimeric Photosystem I of Synechocystis PCC 6803) (from UniProt P29254 1-751; P29255 1-731; P32422 1-81; P72712 1-86; P37277 1-157)” had a stoichiometry N of 3.
